Assay: soluble on expression in E. coli; label from the status in PepcDB or PDB records

Row | Sequence | soluble on expression in E. coli
1 | MKRLAVILITLALVSSMCITNSNEKRENMKNAKVLMVIAPKDFRDEELFEPMAVFESNGLKVDVVSTTKGECVGMLGNKITVEKTIYDVNPDDYVAIVIVGGIGSKEYLWNNTKLIELVKEFYNKNKVVSAICLSPVVLARAGILKGKKATVYPAPEAIEELKKAGAIYEDRGVVVDGNVITAKSPDYARLFGLEVLKAIEKNNE | soluble
2 | QDSDSTAAVAVLKRAVELDAESRYQQALVCYQEGIDMLLQVLKGTKESSKRCVLRTKISGYMDRAENIKKYLDQEKEDGK | soluble
3 | MGSDKIHHHHHHMAHTITIVGLGNYGIDDLPLGIYKFLKTQDKVYARTLDHPVIESLQDELTFQSFDHVYEAHDQFEDVYNDIVAQLVEAANEKDIVYAVPGHPRVAETTTVKLLALAKDNTDIDVKVLGGKSFIDDVFEAVNVDPNDGFTLLDATSLQEVTLNVRTHTLITQVYSAMVAANLKITLMERYPDDYPVQIVTGARSDGADNVVTCPLYELDHDENAFNNLTSVFVPKIITSTYLYHDFDFATEVIDTLVDEDKGCPWDKVQTHETLKRYLLEETFELFEAIDNEDDWHMIEELGDILLQVLLHTSIGKKEGYIDIKEVITSLNAKMIRRHPHIFGDANAETIDDLKEIWSKAKDAEGKQPRVKFEKVFAEHFLNLYEKTKDKSFDEASLKQWLEKGESNT | not soluble
4 | MAGDPMKKLAFAITATSGAAAFLTHHDAQASTQHTVQSGESLWSIAQKYNTSVESIKQNNQLDNNLVFPGQVISVGGSDAQNSSNTSPQAGSASSHTVQAGESLNIIASRYGVSVDQLMAANNLRGYLIMPNQTLQIPNGGSGGTTPTATTGSNGNASSFNHQNLYTAGQCTWYVFDRRAQAGSPISTYWSDAKYWAGNAANDGYQVNNTPSVGSIMQSTPGPYGHVAYVERVNGDGSILISEMNYTYGPYNMNYRTIPASEVSSYAFIHLEHHHHHH | not soluble
5 | MTHHHHHHAMGPAAGQAYDAGNLDVASSPVKPTLSITKKTLTAAEAPNAKVTMELSVEGAADKYAATGLHIQFDPKLKLIPDEDGALATAGRAARLLELKKAEADTDNSFFTATGSSTNNGKDGVLWSFVLQVPADAQPGDKYDVQVAYQSRTTNEDLFTNVKKDEEGLLMQAWTFTQGIEQGYIQVESTTSLE | soluble
6 | GSHMRLSDYFPESSISVIHSAKDWQEAIDFSMVSLLDKNYISENYIQAIKDSTINNGPYYILAPGVAMPHARPECGALKTGMSLTLLEQGVYFPGNDEPIKLLIGLSAADADSHIGAIQALSELLCEEEILEQLLTASSEKQLADIISRG | soluble
7 | MKSLQSSLGNIETFKLDELCPKHEIQLTQIKGERHVVVGWNENGEAIKEVRCIPPYCEQCQEEQKKQDEEDAIADNLNAKLYMQTYNVLMSNKSYVADEFKTKTFDDFNAVTSEEKRFLEFAKGQVQKYLDGMRGNTLITGGTGIGKTLLSVAIAKGINEGYKTKGEPKSVLFVSLTEMIKQIKEGWNYGKGATLTEFEATELMKSVDYLIIDDLGAKNAVIKPKSDWEQDLLFDVLNNRENTIFNTNLDSDELKIVYNERNYSRILKGLEGNTFKAFGIKYKRYSLNQLKSNM | not soluble
8 | MRAPEESLREVLARFPQVQAAFLFGSRAEGRARADSDWDLALLLSPEEPDPTLEVLGALVEAGLERVDLVLLHRAPPLLAFLAVKGKPVFLREGFDLGSYVSRVAREWWDTEPLLRVQREALTLKRRWLDPS | soluble
9 | MAHHHHHHMLVRRSLSKKRSVIRGRNSRDLRVSSYIRVCTCTYVRNLCCRRLAYYDVCGESWSHARPFSPNSAMDYSLSVFRVLCPFVKTFFLFTLPCLTEGEGRVKSLIRWWEKKTCAEILMSSHAYLGLLRFICDLYTSFKGYVSRWHCPARRTAVLSCLSAAIGADGGVGPWLLLFVRAAVLRVLSLRQHPQTTQGEGRLARLVQPNQSGGHERHQQ | not soluble
10 | SDITLESLRHIIAQVLPHRDPALVFKDLNVVSMLQEFWESKQQQKAAFPSEGVVVYESLPAPGPPFVSYVTLPGGSCFGNFQCCLSRAEARRDAAKVALINSLFNELPSRRITKEFIMESVQEAVASTSGTLDDADDPSTSVGAYHYMLESNMGKTMLEFQELMTIFQLLHWNGSLKALRETKCSRQEVISYYSQYSLDEKMRSHMALDWIMKERDSPGIVSQELRMALRQLEEARKAGQELRFYKEKKEILSLALTQICSDPDTSSPSDDQLSLTALCGYH | soluble
11 | MLLLSGFRYFRAVGVALLFLSVSLATVRADVRPETWQVVVDAGSSKTRGILYRLSADAVTPVVEYNSKLPLARYAGVPDESGNLLIAPLLDTLERLANDQKYALEKKTVLVNVLGTAGMRELSAGQQGVIYEAVKKSILAKGWALGQVGTIDGRDEGIFAWVHLNFLKGLATSDNTLGIIEMGGASSQITFALRSPPMDKADVSQNARTVMWDGKTYSVISESLLGLGADAARTAMNKVRPQDQRCYPQGALIMKVPTTGAFDFTACDLVYDEAIAANYQSEIKKLDAIVASSNYTQTDFVGLSSLYYTLNFFNNDLPERGTLKSALEQSCQRYADIEERLRQDDSKDKYQPENKCANGVFVYDLLYDYLQLGDGRLTALKKVENMDIRWTDGFLLLGKQAPLEHHHHHH | not soluble
12 | MHHHHHHSSGRENLYFQGPPARVRVAVRLRPFVDGTAGASDPPCVRGMDSCSLEIANWRNHQETLKYQFDAFYGERSTQQDIYAGSVQPILRHLLEGQNASVLAYGPTGAGKTHTMLGSPEQPGVIPRALMDLLQLTREEGAEGRPWALSVTMSYLEIYQEKVLDLLDPASGDLVIREDCRGNILIPGLSQKPISSFADFERHFLPASRNRTVGATRLNQRSSRSHAVLLVKVDQRERLAPFRQREGKLYLIDLAGSEDNRRTGNKGLRLKESGAINTSLFVLGKVVDALNQGLPRVPYRDSKLTRLLQDSLGGSAHSILIANIAPERRFYLDTVSALNFAARSKEVINRPFTNESLQPHALGPVKLSQKELLGPPEAK | soluble
13 | MGSDKIHHHHHHMQTGKAISIPSILKVGNGTLNKIGEYLKSEELTSVVIFMGNGLIDMFGDTIMKSLTDAGITVLEYSELDTVEIDDIITLAFDIPNKVKAVVSVGGGKVIDAGKYAAFLRNMPFISVPTSSSSDGFSSASASLLVHGKRTSVPAKLAHGIIVDTQVIRTAPEKFIYSGIGDMVSKITALYDWIFEEAHGAGVVNDFAVMVAKKAVNSFVRTPYESIKDELFLKELVDSLAMSGIANEIAGSSAPTSGSEHLISHALDKILEHPQLHGIQVGIATYIMSVVQNHRYVRVCTVLKRTGFFDYAATLGMRKQDFLDAIDMAPSMKPFRHTYLHEKEYRDAAKKLVLEDDILNKILV | not soluble
14 | MGSDKIHHHHHHMIQLAFTKTEISADTAVKQGAALRQMNELLERLSTAPKYHTLTKKDRAQLSREGYAADLVDNLVLITQRKEESTVTDNDNLVVGFTYAAFDPALYANETLKNHFKQMSQGCCCFCESFLMPTASGHISHYRPVQQLDLEGVEHTKPNSECSPYFSEAYQQENLVYVCSGCDVTHKAGRFPIAGERFPHVALSTENALLVNPYQENPRDFIRFNLCNGHAYPFDQACAFYADTQKLTEQDVEALLWKTPSAIPNQVDEAGALLTDSGVEQAFTFWLKSEASQRQSSRGAVTIVTLGLNRSDLVLARLMTLKQYHNDFITHKAALAQPLMPEDIATIAYRSLALDAFATWQSIANGTGSNLANNEGTNKGTNKGTNIGTNIGASEDTNVANSLPLMANTVLKLREQANNTVENPELDILLPSWFRCCLSYLVLESELQQTGKRRLVFLCNQDRLYGETDTEKCIFLSIKWQRDLHKVIKVRSKRNIWEASFSELANSRPHELINLFANNDVWVEGNFQPLA | not soluble
15 | MGSDKIHHHHHHMPKKSFAQDCLYTAIMRLMREKDVDDITVKELVLKAGVARSTFYRYYTQPMDVLRDYLRPFNHGNAHLDDKDDKKVYLRRFYQYYTGHSELIYTLVQANKTEFLRETISCHILEVFSPMMTNKGVSPFLQKASVGLCVETLILWIVNDRKEKIEEMTDTVHNMVAVVERVS | not soluble

Reference: the DeepSol protein solubility set
